B1: Myc 3' UTR 53-nt fragment (ssRNA)
RNA: GCUUCCCAUCUUUUUUCUUUUUCCUUUUAACAGAUUUGUAUUUAAUUGUUUUU
B2: PHAROH 71-nt hairpin (WT) (structured_RNA)
RNA: GAGAGGAUGCCACUGUUUUGAACUAUUUUGAAGGCACAGCCACCAGAGCUUUAGGGACAGGGUAUUUUAUC

How the values were obtained:
[1] = molecular target: T1, TIAR (nucleolysin TIAR, TIAL-1) (human, UniProt Q01085 1-375); experiment: EMSA; prefers one copy; three only at saturating TIAR; EMSA: ~2 fmol probe in 20 ul, 10 mM HEPES pH 7.3, 20 mM KCl, 1 mM MgCl2 (printed Mg2Cl2), 1 mM DTT, 30 ng/ul BSA, 0.01% NP-40, 5% glycerol, room temperature 30; details: protein: commercial; label: 3' biotin; single strand; sites predicted largely in loop
T1 sequence: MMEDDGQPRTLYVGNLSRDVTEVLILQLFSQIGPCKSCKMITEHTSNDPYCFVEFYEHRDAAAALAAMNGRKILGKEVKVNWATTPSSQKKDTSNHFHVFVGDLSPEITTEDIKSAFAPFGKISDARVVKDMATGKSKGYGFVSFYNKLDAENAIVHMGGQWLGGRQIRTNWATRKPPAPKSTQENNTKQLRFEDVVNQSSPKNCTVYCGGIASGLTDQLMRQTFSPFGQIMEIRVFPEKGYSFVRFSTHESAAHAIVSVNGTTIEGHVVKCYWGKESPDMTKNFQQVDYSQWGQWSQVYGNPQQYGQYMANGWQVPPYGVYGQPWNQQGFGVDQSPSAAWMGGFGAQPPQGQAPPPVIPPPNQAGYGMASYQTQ

[2] = molecular target: T1, TIAR (nucleolysin TIAR, TIAL-1); experiment: EMSA; densitometry of free probe; sequential shifts, prefers two and four copies; EMSA: ~2 fmol probe in 20 ul, 10 mM HEPES pH 7.3, 20 mM KCl, 1 mM MgCl2 (printed Mg2Cl2), 1 mM DTT, 30 ng/ul BSA, 0.01% NP-40, 5% glycerol, room temperature 30; details: protein: commercial; hairpin (predicted)

Binder | binding result [1] | Kd [2] [nM]
B1 | binds | 
B2 |  | ~2

— paper PMC8163507, “PHAROH lncRNA regulates Myc translation in hepatocellular carcinoma via sequestering TIAR”
